Assay [1] has as its target T1, recombinant soluble human IL-6 receptor (SR344) (human, UniProt P08887 20-344, biotinylated (sites not given) where immobilized via streptavidin or used in phage ELISA).
T1 construct: also called soluble IL-6 receptor; membrane-type IL-6 receptor (when biotinylated and immobilized on the chip)
T1 sequence (looked up): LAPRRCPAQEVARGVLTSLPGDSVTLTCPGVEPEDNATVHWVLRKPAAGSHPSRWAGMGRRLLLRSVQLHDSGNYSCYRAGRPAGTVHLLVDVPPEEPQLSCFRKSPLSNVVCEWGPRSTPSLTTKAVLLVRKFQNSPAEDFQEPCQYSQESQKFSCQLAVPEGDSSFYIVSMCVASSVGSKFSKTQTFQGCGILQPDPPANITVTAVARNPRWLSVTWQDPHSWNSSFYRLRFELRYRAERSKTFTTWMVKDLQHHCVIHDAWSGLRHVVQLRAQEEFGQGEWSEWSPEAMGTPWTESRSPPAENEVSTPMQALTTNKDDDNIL
The experiment in a line: SPR Biacore T100, biotinylated SR344 on streptavidin chip (model of membrane-type IL-6 receptor), antibody as analyte, bound at pH 7.4, dissociation at pH 5.8, 37 C. As for the experimental part: Binding to the membrane-type IL-6 receptor was evaluated by evaluating binding to the IL-6 receptor immobilized on a sensor chip. SR344 was biotinylated in accordance with a method known among persons with ordinary skill in the art, and the biotinylated SR344 was immobilized on the sensor chip via streptavidin using the affinity between streptavidin and biotin. All the measurements were carried out at 37° C. The mobile phase buffer was 10 mM MES (pH 5.8), 150 mM NaCl and 0.05% TWEEN® 20 (polyoxyethelene sorbitan monolaurate).
The pH-dependently-binding clones were injected under the condition of pH 7.4 to allow them to bind to SR344, and then, the pH-dependent dissociation of each clone at the pH of the mobile phase, pH 5.8, was observed. The results are shown in FIG. 21 (results for Fv1-M71, Fv1-M73, Fv3-M71, and Fv3-M73 are shown in FIG. 21, while results for other clones are shown in FIGS. 17 and 19). Analyses were carried out in the same manner as in Example 10 and the pH dependencies of the dissociation rate constants of all of the eleven types of clones are shown in Table 12.
Background: In SPR one partner is held on a chip, and binding of the other changes the refractive index at the surface.

Assay [2] deals with T1, recombinant soluble human IL-6 receptor …. The experiment in a line: SPR Biacore T100, antibody captured by anti-IgG gamma chain F(ab)2, SR344 analyte, pH 7.4, 37 C. As for the experimental part:
Kinetic analyses of antigen-antibody reactions at pH 7.4 were carried out on the four types of antibodies, i.e., the humanized PM1 antibody (wild type: WT), and […], H3pI/L73-IgG1, Fv2-IgG1, and Fv4-IgG1 constructed in Examples 2 and 10, by using a Biacore T100™ surface plasmon resonance system (GE Healthcare) (buffer: 10 mM MES (pH 7.4), 150 mM NaCl, 0.05% TWEEN® 20 (polyoxyethelene sorbitan monolaurate)). Each antibody was bound on a sensor chip on which an anti-IgG γ chain specific F(ab)₂ (Pierce) was immobilized by amine coupling, and then, SR344 adjusted to a concentration of 9.8 to 40 nM was injected thereto as an analyte. The association to and dissociation from SR344 were observed on a real-time basis for the pH-dependent-binding clones. All the measurements were carried out at 37° C. Association rate constants kₐ (1/Ms) and dissociation rate constants kd (1/s) were calculated using Biacore T100™ Evaluation Software (GE Healthcare), and dissociation constants KD (M) were calculated on the basis of those values (Table 7).
The association to and dissociation from SR344 were observed on a real-time basis using the same method as Example 10 for the eleven types of antibodies, humanized PM1 antibody (wild type: WT) and H3pI/L73-IgG1, Fv1-M71, Fv1-M73, Fv2-IgG1, Fv3-M71, Fv3-M73, Fv4-IgG1, Fv4-IgG2, Fv4-M58, and Fv4-M73, constructed as described above. The association rate constants kₐ (1/Ms) and dissociation rate constants kd. (1/s) were calculated by analysis in the same manner, and the dissociation constants KD (M) were calculated on the basis of those values (Table 11).

B1: Fv4-IgG1 (antibody)
heavy: not shown
light: DIQMTQSPSSLSASVGDSVTITCQASTDISSHLNWYQQKPGKAPELLIYYGSHLLSGVPSRFSGSGSGTDFTFTISSLEAEDAATYYCGQGNRLPYTFGQGTKVEIERTVAAPSVFIFPPSDEQLKSGTASVVCLLNNFYPREAKVQWKVDNALQSGNSQESVTEQDSKDSTYSLSSTLTLSKADYEKHKVYACEVTHQGLSSPVTKSFNRGEC
notes: VH3-IgG1 / VL3-CK
As a reminder, the koff is the first-order rate constant of dissociation. By Kd is commonly meant a measure of binding affinity in units of concentration. The term kon denotes the second-order rate constant of association. With B1, in assay [1], the koff came to 0.0026 s⁻¹. In assay [2], the Kd was 1.4 nM, the koff was found to be 0.001 s⁻¹ and the kon was determined as 720000 M⁻¹ s⁻¹.

The values are drawn from US20180282719A1 (published 2018).
